Publication PMC10138680, “Identification and Functional Analysis of Tartrate-Resistant Acid Phosphatase Type 5b (TRAP5b) in Oreochromis niloticus” (International Journal of Molecular Sciences, 2023)

Tested on: T1, O=[N+]([O-])c1ccc(OP(=O)(O)O)cc1
T1 construct: mature peptide of 302 residues (22-residue signal peptide removed; precursor 324 aa), N-terminal MBP tag (pMAL-c5X) kept, E. coli K12 TB1, amylose resin; forward primer F2 encodes MVEQGA
Assay: purified protein
Format: biochemical, Oreochromis niloticus
Conditions: substrate 5-25 mM, pH and temperature of the kinetic runs not stated (50 mM acetate; optimum pH 5.0, 50 °C; standard assay 37 °C)

Chain of (r)OnTRAP5b (Oreochromis niloticus) (chain, as listed by the source): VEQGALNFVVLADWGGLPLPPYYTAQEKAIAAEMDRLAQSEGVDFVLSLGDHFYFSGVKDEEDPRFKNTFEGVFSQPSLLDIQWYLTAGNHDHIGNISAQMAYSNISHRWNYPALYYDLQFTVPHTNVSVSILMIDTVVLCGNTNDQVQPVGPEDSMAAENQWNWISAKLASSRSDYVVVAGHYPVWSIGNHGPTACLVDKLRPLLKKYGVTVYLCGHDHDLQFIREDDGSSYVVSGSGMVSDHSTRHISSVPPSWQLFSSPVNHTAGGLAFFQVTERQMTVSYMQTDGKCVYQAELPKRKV

## (r)OnTRAP5b (Oreochromis niloticus)
  Km: 2112 µM
  kcat: 0.27 s⁻¹
